According to patent US20200331998A1 (ALLOGENE THERAPEUTICS, published 2020):
Residue numbers refer to the chain shown, from its start.

T1: hCD19-HIS-AVI (human, UniProt P15391 20-291, limits assumed)
T1 construct: not shown: His and Avi tags
T1 sequence (looked up): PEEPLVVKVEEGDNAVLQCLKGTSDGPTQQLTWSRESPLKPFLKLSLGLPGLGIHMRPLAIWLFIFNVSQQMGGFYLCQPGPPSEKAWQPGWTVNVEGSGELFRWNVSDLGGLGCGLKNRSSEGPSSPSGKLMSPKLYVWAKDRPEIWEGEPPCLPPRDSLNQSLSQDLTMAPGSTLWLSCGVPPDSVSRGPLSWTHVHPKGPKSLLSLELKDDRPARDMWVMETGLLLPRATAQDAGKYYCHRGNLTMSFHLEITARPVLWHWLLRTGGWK

B1: E2153.4D7.E11 (antibody, V domains shown)
VH: QVQLQQSGAELVRPGTSVKVSCKASGYAFTNYLIEWVKQRPGQGLEWIGVITPGSGGSNYNEKFKGKATLTADKSSSTAYMQLSSLTSDDSAVYFCARWLDYDWFAYWGQGTLVTVSA
VL: DIKMTQSPSSMYASLGERVTITCKASQDINSYLSWFQQKPGKSPKTLIYRANRLVDGVPSRFSGSGSGQDYSLTISSLEYEDMGIYYCRQCDEFPSTFGGGTKLEIK
notes: Mouse hybridoma antibody; Biotinylated for the Biacore assays; PE-labelled in flow cytometry; also called Clone E11
B2: E2153.1C4.E2 (antibody, V domains shown)
VH: QVQLQQSGAELVKPGASVKVSCKAFGYTFTTYPIEWMRQNHGKSLEWIGNFHPYNDDTRYNEKFKDKAKLTVEKSSSTVYLELSRLTYDDSAVYYCTRGNDYDLYGMDYWGQGTSVTVSS
VL: B1 VL with S7F, S31T, S34T, R89L, E93D, S96L, G100A, I106L
notes: Mouse hybridoma antibody; Biotinylated for the Biacore assays; also called Clone E2
B3: E2153.1D9.B4 (antibody, V domains shown)
VH: B1 VH with V37I, T52N, S58I, A72S
VL: B1 VL with S7F, L15V, R89L, S96F
notes: Mouse hybridoma antibody; Biotinylated for the Biacore assays; also called Clone B4
B4: E2153.2H8.A8 (antibody, V domains shown)
VH: B2 VH
VL: DIKMTQSPSSMYASLGERVTITCKASQDINTYLTWFQQKPGKSPKTLIYRANRLVDGVPSRFSGSGSGQDYSLTISSLEYEDMGIYYCLQCDDFPLTFGAGTKLELKR
notes: Mouse IgG1/kappa hybridoma antibody; Biotinylated for the Biacore assays; also called Clone A8; anti-UCART19 idiotype antibody A8

What was measured:
hCD19-HIS-AVI = target: T1, hCD19-HIS-AVI; test: SPR (Biacore, 25° C.) sandwich assay with buffer/hCD19 injections
Method: (§1) Anti-m4G7 purified sub-clone antibodies were tested for binding to m4G7-hFab. Blocking effect was determined using a sandwich assay and binding confirmation to […] was determined using a Biacore assay at 25° C. […] Sensor chip CAP (CAPture chip) #505 was used as a surface. After rehydrating the sensor chip CAP with water at 42° C. for 1 hour, the chip was dried with compressed air. The surface of the chip was conditioned using triplicate 1 min injections of regeneration solution at 10 μl/min. The regeneration solution included 3 parts of Regeneration Stock 1 (8 M guanidine-HCl) with 1 part Regeneration Stock 2 (1 M NaOH). Capture of Biotin CAPture reagent for 5 min at 2 μl/min was followed by capture of biotinylated Fusion E2153 anti-m4G7 purified sub-clones antibodies and control antibodies at 10 μg/ml for 1 min at 10 μl/min.
The blocking effect of m4G7-hFab binding to hCD19 by the purified anti-Ids sub-clones from Fusion E2153 was determined by the sandwich assay at 25° C. Sample 1 was injected for 2 min at 30 μL/min followed by 10 sec in buffer then Sample 2 was injected for 2 min at 30 μL/min followed by 3 min dissociation: […]

m4G7 hFab 8×His [1] = target: T2, m4G7 hFab 8×His (human); test: Biacore SPR at 25 °C, biotinylated antibody captured on CAP chip, m4G7-hFab injected, 1:1 Binding fit printed under the sensorgram; the text (Table 3) calls this clone very high affinity, outside instrument limits
T2 construct: Immunogen and Biacore analyte; also called 4G7-human Fab-8×His fusion protein (E2153); m4G7-Fab; not shown: It lies between the VH and the 8xHis tag and is left out
Method: as §1
(§2) For the kinetics assay, the buffer and m4G7-hFab at 1 nM, 10 nM, and 100 nM were injected for 2 min at 30 μL/min followed by 5 min dissociation.

m4G7 hFab 8×His [2] = target: T2, m4G7 hFab 8×His; test: SPR (Biacore, 25° C.), biotinylated antibody captured on CAP chip, m4G7-hFab as analyte
Method: as §1, §2

T2 sequence (VH, as listed by the source limits assumed, chain 1 of 2): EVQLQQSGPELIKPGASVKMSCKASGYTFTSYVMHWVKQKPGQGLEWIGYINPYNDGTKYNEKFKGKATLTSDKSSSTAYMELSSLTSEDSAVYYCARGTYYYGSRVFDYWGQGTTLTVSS
T2 sequence (VL, as listed by the source limits assumed, chain 2 of 2): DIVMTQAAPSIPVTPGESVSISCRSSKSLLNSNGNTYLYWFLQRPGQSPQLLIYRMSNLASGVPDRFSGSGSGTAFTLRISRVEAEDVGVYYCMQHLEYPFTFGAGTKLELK

Binder | binding result (hCD19-HIS-AVI) | Kd (m4G7 hFab 8×His [1]) [nM] | koff (m4G7 hFab 8×His [1]) [s⁻¹] | kon (m4G7 hFab 8×His [1]) [M⁻¹ s⁻¹] | Kd (m4G7 hFab 8×His [2]) [nM] | koff (m4G7 hFab 8×His [2]) [s⁻¹] | kon (m4G7 hFab 8×His [2]) [M⁻¹ s⁻¹] | t1/2 (m4G7 hFab 8×His [2]) [h]
B1 | no binding (tested: 300 nM) | 0.00936 | 3.65e-05 | 3.9e+06 | – | – | – | –
B2 | no binding (tested: 300 nM) | – | – | – | 0.0167 | 0.000128 | 7.65e+06 | 1.5
B3 | no binding (tested: 300 nM) | 0.00489 | 1.58e-05 | 3.22e+06 | – | – | – | –
B4 | no binding (tested: 300 nM) | – | – | – | 0.0144 | 0.000106 | 7.35e+06 | 1.82
